Molecular target: recombinant human GST-MDM2 (human) (UniProt Q00987)
Assay: fluorescence polarisation

Sequence of recombinant human GST-MDM2 (human) (Q00987 whole entry): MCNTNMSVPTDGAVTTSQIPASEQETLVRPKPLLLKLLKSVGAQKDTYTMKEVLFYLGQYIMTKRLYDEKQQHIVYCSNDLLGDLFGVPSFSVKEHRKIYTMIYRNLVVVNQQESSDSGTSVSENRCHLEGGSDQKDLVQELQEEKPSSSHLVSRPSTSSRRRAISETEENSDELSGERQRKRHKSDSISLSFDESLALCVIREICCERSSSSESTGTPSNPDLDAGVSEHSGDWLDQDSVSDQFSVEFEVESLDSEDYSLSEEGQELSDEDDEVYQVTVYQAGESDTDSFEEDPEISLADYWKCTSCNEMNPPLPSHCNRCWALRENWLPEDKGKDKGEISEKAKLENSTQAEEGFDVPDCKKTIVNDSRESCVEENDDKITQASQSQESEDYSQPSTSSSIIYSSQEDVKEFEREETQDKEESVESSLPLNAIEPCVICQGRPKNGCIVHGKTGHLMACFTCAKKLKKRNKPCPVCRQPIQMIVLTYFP

Kd: 57 nM
Substance: Cy5-r9-PMIγ (peptide)

Source: article PMC12814185, “Receptor-Mediated Shuttling of a D‑Amino Acid Peptide Achieves High Nanomolar Cytosolic Concentrations” (Journal of the American Chemical Society, 2025)
